“Also recorded” adds a separate entry of the source.
Key:
NFkB promoter = assay: Orthogonality of inducible promoters driving fluorescent proteins; format: cell-based; settings: PMA is the inducer for AP1 promoter
Text: Although the propensity of many Cas13 splits to reconstitute spontaneously has led to leaky knockdown activity when coupled with CID systems, transcriptional control of such splits creates an AND gate logic. Inducible promoters (IP) such as WNT, NFkB, CAGA12, and AP1 promoters are available to orthogonally drive split Cas13 expression. In such design, there can only be target knockdown activity when there is input for both promoters. After verification for the ability of these promoters to inducibly drive gene expression using fluorescent proteins (see e.g., FIG. 13E), experiments were conducted with split RfxCas13d pieces and WT RfxCas13d. The chosen split was 559/560 as this split pair is able to achieve target knockdown efficiency more than 80%, and its knockdown ability surpasses that of WT RfxCas13d when coupled with the GIB CID system. Inducible promoter driving the WT Cas13 serves as the positive control (see e.g., FIG. 13A middle panel; see e.g., setting 3 in FIG. 13B, corresponding to “IP-WT” in FIG. 13B-13D). The highest inducibility among the 3 IPs was 30% inducibility with the promoter CAGA12. […] As such, the aforementioned constructs (e.g., split recombinase and IPs) can be integrated into AAVS1 sites and their performance evaluated.

mCherry = assay: Split Cas13 (559/560) or WTCas13 driven by inducible promoters (NFkB, CAGA12, AP1), mCherry knockdown; format: cell-based; settings: NFkB promoter with TGFbeta; CAGA12 promoter with TNFalpha; AP1 promoter with PMA
Text: FIG. 13A-13E is a series of schematics and graphs showing the coupling of split Cas13 (559/560) expression to inducible promoters responsive to endogenous signals. Inducible promoters responsive to endogenous signals drove split Cas13 expression for the construction of AND logic gate. FIG. 13A is a schematic showing the transfection compositions of endogenous signal-responsive promoters (e.g., “short response elements” and “miniP”) driving split Cas13d's. […] FIG. 13E is a series of bar graphs showing that orthogonality among the 3 inducible promoters tested. In FIG. 13B-13D, the left-right order of the bars for each design is the same as the top-down order of the legend for each bar graph, and “NT-gRNA” is non-target gRNA. In FIG. 13E, the left-right order of the bars is the same as the top-down order of the legend for each bar graph.

NS3a-genotype 1b = NS3a-genotype 1b (Hepatitis C virus genotype 1b, UniProt P26663, A1092G/F1173S/K1113A/P1112Q); settings: disrupted by NS3a-targeting drugs; read-out: affinity of basal complex with NS3a-genotype 1b; cited from earlier work
NS3a/danoprevir complex = NS3a/danoprevir complex (Hepatitis C virus genotype 1a, UniProt P27958, T1100M/T1173A); settings: cited from earlier work
apo NS3a = apo NS3a (Hepatitis C virus genotype 1a, UniProt P27958, T1100M/T1173A); settings: cited from earlier work
[1] = test system: luciferase and endogenous transcripts; settings: cited from earlier work
[2] = test system: mCherry reporter and endogenous transcripts in HEK293T cells; settings: cited from earlier work
[3] = test system: bystander fluorescent proteins (GFP, BFP, iRFP); assay: Collateral cleavage of bystander fluorescent proteins by Cas13d during mCherry on-target knockdown; format: cell-based
Text: FIG. 5A-5C is a series of schematics and graphs showing collateral activity of Cas13d. […] As the plasmid dosage of the bystander fluorescent protein decreased, bystander expression was knocked down at a higher level.
The green fluorescent protein (GFP) was used initially as a transfection marker and as a non-targeted gene expression control. […] GFP was knocked down by Cas13d only when mCherry was present, confirming that this is a collateral activity instead of a result from non-specific gRNA design.

[4] = test system: mCherry expression in HEK 293 FT cells; assay: Cas13d/gRNA mCherry knockdown, transient transfection, flow cytometry; format: cell-based; settings: mCherry expression at various levels
Text: FIG. 4A-4D is a series of schematics and graphs showing that Cas13d achieved robust transgene knockdown in HEK 293 FT cells. FIG. 4A is a schematic showing the necessary components for the CRISPR/Cas13d system. […] Minimizing either one component led to the abolishment of knockdown ability.
In order to gain better understanding of the activity of the Cas13 effector/gRNA system, it was first examined how variation in the expression of each components (e.g., target, guide, and/or effector protein) relate to the knockdown efficiency of the system. HEK 293 FT cells were transiently transfected with the components of the system, and expression of the targeted gene, mCherry, was tested using flow cytometry. […] Another important feature of Cas13d is its ability to process pre-mature gRNA arrays and achieve multiplexed gene targeting. To verify this, pre-gRNAs with spacer regions flanked by 2 direct repeat sequences were transfected with Cas13d into HEK 293 FT cells. Target gene knockdown was later quantified and compared to that by mature gRNAs.

[5] = read-out: affinity (Kd); cited from earlier work

## CCCCCCCCCCCCCC(=O)O[C@@H]1[C@@H](C)[C@@]2(O)[C@@H](C=C(CO)C[C@]3(O)C(=O)C(C)=C[C@@H]23)[C@@H]2C(C)(C)[C@]12OC(C)=O [PMA, reference compound]
NFkB promoter
  activation of NFkB inducible promoter: turned on
mCherry
  mCherry knockdown by split Cas13d or WTCas13 expressed from inducible promoter: induced mCherry knockdown

## GELDELVYLLDGPGYDPIHSD [ANR]
NS3a-genotype 1b
  Kd: 10 nM

B1: DNCR2: danoprevir/NS3 complex reader, SEQ ID NO: 163 (protein)
chain: SSDEEEARELIERAKEAAERAQEAAERTGDPRVRELARELKRLAQEAAEEVKRDPSSSDVNEALKLIVEAIEAAVDALEAAERTGDPEVRELARELVRLAVEAAEEVQRNPSSSDVNEALHSIVYAIEAAIFALEAAERTGDPEVRELARELVRLAVEAAEEVQRNPSSRNVEHALMRIVLAIYLAEENLREAEESGDPEKREKARERVREAVERAEEVQRDPSGWLNH
NS3a/danoprevir complex
  selectivity over NS3a bound to the drugs grazoprevir or asunaprevir: > 20,000 fold
NS3a/danoprevir complex; free danoprevir, no NS3a
  binding to free danoprevir: does not bind substantially
NS3a/danoprevir complex; read-out: affinity for the NS3a/danoprevir complex
  Kd: 0.036 nM
Apo NS3a
  binding to apo NS3a: no detectable binding

B2: LwaCas13b: Leptotrichia wadei Cas13a, SEQ ID NO: 2 (protein, listed as Leptotrichia wadei)
chain: MKVTKVDGISHKKYIEEGKLVKSTSEENRTSERLSELLSIRLDIYIKNPDNASEEENRIRRENLKKFFSNKVLHLKDSVLYLKNRKEKNAVQDKNYSEEDISEYDLKNKNSFSVLKKILLNEDVNSEELEIFRKDVEAKLNKINSLKYSFEENKANYQKINENNVEKVGGKSKRNIIYDYYRESAKRNDYINNVQEAFDKLYKKEDIEKLFFLIENSKKHEKYKIREYYHKIIGRKNDKENFAKIIYEEIQNVNNIKELIEKIPDMSELKKSQVFYKYYLDKEELNDKNIKYAFCHFVEIEMSQLLKNYVYKRLSNISNDKIKRIFEYQNLKKLIENKLLNKLDTYVRNCGKYNYYLQVGEIATSDFIARNRQNEAFLRNIIGVSSVAYFSLRNILETENENGITGRMRGKTVKNNKGEEKYVSGEVDKIYNENKQNEVKENLKMFYSYDFNMDNKNEIEDFFANIDEAISSIRHGIVHFNLELEGKDIFAFKNIAPSEISKKMFQNEINEKKLKLKIFKQLNSANVFNYYEKDVIIKYLKNTKFNFVNKNIPFVPSFTKLYNKIEDLRNTLKFFWSVPKDKEEKDAQIYLLKNIYYGEFLNKFVKNSKVFFKITNEVIKINKQRNQKTGHYKYQKFENIEKTVPVEYLAIIQSREMINNQDKEEKNTYIDFIQQIFLKGFIDYLNKNNLKYIESNNNNDNNDIFSKIKIKKDNKEKYDKILKNYEKHNRNKEIPHEINEFVREIKLGKILKYTENLNMFYLILKLLNHKELTNLKGSLEKYQSANKEETFSDELELINLLNLDNNRVTEDFELEANEIGKFLDFNENKIKDRKELKKFDTNKIYFDGENIIKHRAFYNIKKYGMLNLLEKIADKAKYKISLKELKEYSNKKNEIEKNYTMQQNLHRKYARPKKDEKFNDEDYKEYEKAIGNIQKYTHLKNKVEFNELNLLQGLLLKILHRLVGYTSIWERDLRFRLKGEFPENHYIEEIFNFDNSKNVKYKSGQIVEKYINFYKELYKDNVEKRSIYSDKKVKKLKQEKKDLYIRNYIAHFNYIPHAEISLLEVLENLRKLLSYDRKLKNAIMKSIVDILKEYGFVATFKIGADKKIEIQTLESEKIVHLKNLKKKKLMTDRNSEELCELVKVMFEYKALE
[1]
  knockdown efficiency: 50%

B3: Cas13d: type VI-D CRISPR-associated RNA-guided ribonuclease Cas13d Ruminococcus flavefaciens, SEQ ID NO: 1 (protein, listed as Ruminococcus flavefaciens)
chain: IEKKKSFAKGMGVKSTLVSGSKVYMTTFAEGSDARLEKIVEGDSIRSVNEGEAFSAEMADKNAGYKIGNAKFSHPKGYAVVANNPLYTGPVQQDMLGLKETLEKRYFGESADGNDNICIQVIHNILDIEKILAEYITNAAYAVNNISGLDKDIIGFGKFSTVYTYDEFKDPEHHRAAFNNNDKLINAIKAQYDEFDNFLDNPRLGYFGQAFFSKEGRNYIINYGNECYDILALLSGLRHWVVHNNEEESRISRTWLYNLDKNLDNEYISTLNYLYDRITNELTNSFSKNSAANVNYIAETLGINPAEFAEQYFRFSIMKEQKNLGFNITKLREVMLDRKDMSEIRKNHKVFDSIRTKVYTMMDFVIYRYYIEEDAKVAAANKSLPDNEKSLSEKDIFVINLRGSFNDDQKDALYYDEANRIWRKLENIMHNIKEFRGNKTREYKKKDAPRLPRILPAGRDVSAFSKLMYALTMFLDGKEINDLLTTLINKFDNIQSFLKVMPLIGVNAKFVEEYAFFKDSAKIADELRLIKSFARMGEPIADARRAMYIDAIRILGTNLSYDELKALADTFSLDENGNKLKKGKHGMRNFIINNVISNKRFHYLIRYGDPAHLHEIAKNEAVVKFVLGRIADIQKKQGQNGKNQIDRYYETCIGKDKGKSVSEKVDALTKIITGMNYDQFDKKRSVIEDTGRENAEREKFKKIISLYLTVIYHILKNIVNINARYVIGFHCVERDAQLYKEKGYDINLKKLEEKGFSSVTKLCAGIDETAPDKRKDVEKEMAERAKESIDSLESANPKLYANYIKYSDEKKAEEFTRQINREKAKTALNAYLRNTKWNVIIREDLLRIDNKTCTLFRNKAVHLEVARYVHAYINDIAEVNSYFQLYHYIMQRIIMNERYEKSSGKVSEYFDAVNDEKKYNDRLLKLLCVPFGYCIPRFKNLSIEALFDRNEAAKFDKEKKKVSGNS
[2]; HEK293T cells, mCherry reporter and endogenous transcripts
  knockdown efficiency: 80-95%
[2]; mammalian cells
  knockdown of mCherry and endogenous gene expression: 85-90%
[3]; mCherry on-target knockdown by Cas13d
  effect on bystander iRFP expression: least disturbed; also recorded: minimally affected
[3]; mCherry targeting Cas13d system
  effect on bystander BFP expression: strongly affected
[3]; mCherry targeting Cas13d system, mCherry present
  effect on bystander GFP expression: knocked down along with mCherry
[4]
  mCherry knockdown efficiency: around 80%

B4: aCaffVHH: VHH camelid antibody that specifically binds to caffeine, SEQ ID NO: 1980 (protein)
VHH: EVQLQASGGGLVQAGGSLRLSCTASGRTGTIYSMAWFRQAPGKEREFLATVGWSSGITYYMDSVKGRFTISRDNAKNSAYLQMNSLKPEDTAVYYCTATRAYSVGYDYWGQGTQVTVSH
[5]
  Kd: 500 nM
